Data on 2 molecules can be found in patent US20240360233A1 (University of Texas, published 2024).

Experiment [1] concerns the target T1, TSLPR on TSLPR-expressing REH cells (UniProt Q9HC73 23-371).
T1 sequence (looked up): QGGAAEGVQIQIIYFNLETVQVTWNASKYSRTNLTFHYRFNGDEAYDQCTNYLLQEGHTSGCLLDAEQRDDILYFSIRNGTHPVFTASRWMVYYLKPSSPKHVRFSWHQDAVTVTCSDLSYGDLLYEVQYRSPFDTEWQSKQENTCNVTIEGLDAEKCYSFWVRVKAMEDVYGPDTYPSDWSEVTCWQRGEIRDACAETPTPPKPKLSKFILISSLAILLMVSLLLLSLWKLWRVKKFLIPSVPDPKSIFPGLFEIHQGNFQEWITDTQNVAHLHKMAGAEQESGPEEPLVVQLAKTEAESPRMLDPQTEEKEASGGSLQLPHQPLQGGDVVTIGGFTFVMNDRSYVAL
Nature of the experiment: cell-based or functional assay.

The target of the next experiment is cynomolgus TSLPR (cynomolgus). The experiment can be described thus: SPR (BIAcore). Background: In SPR one partner is held on a chip, and binding of the other changes the refractive index at the surface.
Another experiment deals with T2, human TSLPR protein (human, UniProt Q9HC73 23-231, limits assumed).
T2 sequence (looked up): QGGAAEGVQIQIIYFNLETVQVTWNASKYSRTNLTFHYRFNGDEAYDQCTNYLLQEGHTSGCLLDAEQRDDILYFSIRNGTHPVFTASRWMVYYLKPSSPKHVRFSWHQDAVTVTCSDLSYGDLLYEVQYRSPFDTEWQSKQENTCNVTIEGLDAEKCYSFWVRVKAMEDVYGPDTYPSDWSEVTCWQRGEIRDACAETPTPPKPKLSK
Nature of the experiment: SPR (BIAcore).

Experiment [2] deals with T3, his-tagged TSLPR (TSLPR-HIS) (UniProt Q9HC73 23-231, limits assumed).
T3 construct: Soluble protein used in the ForteBio assay; not shown: His tag
T3 sequence (looked up): T2 sequence (looked up)
Nature of the experiment: BLI (ForteBio AHQ sensor), antibody captured, TSLPR-HIS in solution. As to the method:
TSLPR antibody clones whose VH and VL sequences are disclosed in Tables 9 and 10 were bound to the AHQ sensor and his-tagged TSLPR (TSLPR-HIS) was provided in solution. […] The anti-TSLPR antibodies were serially diluted with an HBS-EP solution (GE Healthcare), and 100 μL of the solution was added to the flow path at a flow rate of […].

B1: TSLPR antibody clone 1B7 (antibody, V domains shown)
VH: QVQLQESGPGLVKPSGTLSLTCAVSGGSISSSNWWSWVRQPPGKGLEWIGEIYHGGTTNNNPSLKSRVTISVDKSKSQFSLKLSSVTAADTAVYYCARHRYSNGLDYWGQGTLVTVSS
VL: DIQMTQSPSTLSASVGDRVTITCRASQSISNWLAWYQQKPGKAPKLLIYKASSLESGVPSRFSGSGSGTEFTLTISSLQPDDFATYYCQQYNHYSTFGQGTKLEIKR
notes: also called TSLPR-6; TSLPR-006
For the molecule B1, in experiment [1], the “EC50 (Promega ADCC reporter assay, RLU)” value was 0.08 nM. Moreover, the figures for the Kd (with cynomolgus TSLPR; with human TSLPR protein; in experiment [2]) were ~2.03 nM, ~2.87 nM and 2.82 nM, respectively. The koff in experiment [2] came out at 0.00079 s⁻¹. In experiment [2], this molecule registered a kon of 280000 M⁻¹ s⁻¹.

B2: TSLPR antibody clone 1A9 (antibody, V domains shown)
VH: QVQLQESGPGLVKPSETLSLTCAVSGYSISSGYYWGWIRQPPGKGLEWIGRIYHSGTTSYNPSLKRRVTISVDTSKNQFSLKLSSVTATDTAVYYCARNWGGNWFDPWGQGTLVTVSS
VL: EIVLTQSPATLSLSPGERATLSCRASQSVSSYLAWYQQKPGQAPRLLIYDASNRATGIPARFSGSGSGTDFTLTISSLEPEDFAVYYCQQRSTWLTFGGGTKVDIKR
notes: also called TSLPR-4; TSLPR-004
In the case of B2, the “EC50 (Promega ADCC reporter assay, RLU)” value in experiment [1] was 0.03 nM. Besides, in experiment [2], binding was characterised by a dissociation constant (Kd) of 4.45 nM, the koff came out at 0.000769 s⁻¹ and the kon is 173000 M⁻¹ s⁻¹.

The term Kd denotes the concentration at which binding is half-saturated. High values mean lower affinity, low ones higher affinity. Usually koff stands for the rate constant with which the complex falls apart. Read a low koff as a long-lived complex. What is called kon is the second-order rate constant of association. Low values mean slower complex formation, high ones faster complex formation.
